Data from publication PMC11347675.

Legend:
[1] = biological target: BG505-SOSIP (soluble SOSIP Env trimer of HIV-1 strain BG505) (HIV-1 (strain BG505)) (UniProt Q2N0S6); assay: cryo-EM structure; unliganded SOSIP trimers purified by GNL/SEC; 2.16 mg/mL 1059-SOSIP, 3.64 mg/mL BG505-SOSIP; 0.085 mM DDM before vitrification; refined with C1 symmetry
[2] = biological target: 1059-SOSIP (soluble SOSIP Env trimer of the transmitted/founder HIV-1 strain 1059) (HIV-1 (strain 1059, transmitted/founder)); assay: as above

Which stoichiometry N [1] does the source give for “BG505-SOSIP (soluble SOSIP Env trimer of HIV-1 strain BG505) (from UniProt Q2N0S6 1-860; Q2N0S6 1-860) (complex)” here?
The stoichiometry N was 3.

Which stoichiometry N [2] does the source give for “1059-SOSIP (soluble SOSIP Env trimer of the transmitted/founder HIV-1 strain 1059) (complex)” here?
The stoichiometry N was 3.
